To fix the notation:
B1: αE-catenin α(CA) (M319G/R326E/R551E), as chain of the supra-complex (natural protein, mouse, UniProt P26231 1-906, looked up)
chain: MTAVHAGNINFKWDPKSLEIRTLAVERLLEPLVTQVTTLVNTNSKGPSNKKRGRSKKAHVLAASVEQATENFLEKGDKIAKESQFLKEELVVAVEDVRKQGDLMKSAAGEFADDPCSSVKRGNMVRAARALLSAVTRLLILADMADVYKLLVQLKVVEDGILKLRNAGNEQDLGIQYKALKPEVDKLNIMAAKRQQELKDVGNRDQMAAARGILQKNVPILYTASQACLQHPDVAAYKANRDLIYKQLQQAVTGISNAAQATASDDAAQHQGGSGGELAYALNNFDKQIIVDPLSFSEERFRPSLEERLESIISGAALGADSSCTEDDRRERIVAECNAVRQALQDLLSEYMGNAGRKERSDALNSAIDKMTKKTRDLRRQLRKAVMDHVSDSFLETNVPLLVLIEAAKNGNEKEVKEYAQVFREHANKLIEVANLACSISNNEEGVKLVRMSASQLEALCPQVINAALALAAKPQSKLAQENMDLFKEQWEKQVRVLTDAVDDITSIDDFLAVSENHILEDVNKCVIALQEKDVDGLDRTAGAIRGRAAEVIHVVTSEMDNYEPGVYTEKVLEATKLLSNTVMPRFTEQVEAAVEALSSDPAQPMDENEFIDASRLVYDGIRDIRKAVLMIRTPEELDDSDFETEDFDVRSRTSVQTEDDQLIAGQSARAIMAQLPQEQKAKIAEQVASFQEEKSKLDAEVSKWDDSGNDIIVLAKQMCMIMMEMTDFTRGKGPLKNTSDVISAAKKIAEAGSRMDKLGRTIADHCPDSACKQDLLAYLQRIALYCHQLNICSKVKAEVQNLGGELVVSGVDSAMSLIQAAKNLMNAVVQTVKASYVASTKYQKSQGMASLNLPAVSWKMKAPEKKPLVKREKQDETQTKIKRASQKKHVNPVQALSEFKAMDSI
notes: αE-catenin, mouse, untagged; residues 690–903 are modelled in the structure; used for the pairs that touch in the cryo-EM structure; also called αE-catenin ABD; ABD1; source: FreeStyle 293-F, co-expressed and purified within the tetramer Eβα(CA)-vinculin(T12-IV)

Data set [1] concerns the target F-actin (chicken skeletal muscle actin) (UniProt P68139). Kind of data set: F-actin co-sedimentation assay. The settings on record: +CC (black bar; with mutant afadin-CC); mean ± SD of three independent experiments; parent: est. 0.89; read off a plot.
Data set [2] deals with the molecule itself. Put plainly: cryo-EM structure; 2.5 μM tetramer Eβα(CA)-Vinculin(T12-IV) premixed with 5 μM afadin-CC, added to 0.6 μM F-actin on the grid; maps at 3.1 Å (straight, both strands decorated) and 4.1 Å (curved, one strand decorated).
Data set [3] concerns the target B1. The description is as above. As to conditions: both partners purified.

“Eβα(CA)–vinculin(T12-IV)–afadin-CC pentamer (from UniProt Q02248;P26231;P18206-2;Q9QZQ1-3) afadin-CC:F1564A”: the response in data set [1] amounted to 0.35.

Consider “Eβα(CA)–vinculin(T12-IV)–afadin-CC pentamer (from UniProt Q02248;P26231;P18206-2;Q9QZQ1-3) afadin-CC:W1514A; afadin-CC:R1516A; afadin-CC:D1517A; afadin-CC:F1564A”, for which the response in data set [1] was found to be 0.3. In the case of B1, the binding result in data set [2] is “binds”.

B2: afadin-CC (afadin coiled-coil region, residues 1393–1602), purified (domain or fragment, mouse, UniProt Q9QZQ1-3 1393-1602, looked up)
chain: ANQAGPQSAQVAAAEWKKREEHQRWYEKEKARLEEERERKRREQERKLGQMRSQTLNPASFSPLATQAKPEKPSTLQRPQETVIRELQPQQQPRTIERKDLQYITISKEELSSGDSLSPDPWKRDAREKLEKQQQMHIVDMLSKEIHELQNKVDRTAEESDRLRKLMLEWQFQKRLQESKQKDEDDDEEEDDDVDTMLIMQRLEAERRAR
notes: afadin coiled-coil region (afadin-CC), mouse; residues 1508–1578 are modelled in the structure; source: FreeStyle 293-F, transfected, purified (anti-GFP beads, TEV, MonoQ, SEC); not shown: GFP, N-terminal, cleaved
As for B2, the binding result in data set [3] is listed as “binds”.

Values taken from doi:10.1101/2024.10.08.617332 (bioRxiv, 2024).
